From patent US20090305309A1

Target: Src substrate peptide … derived from p130cas, tyrosine-phosphorylated by Src
Test: cell-based or functional assay

cyan-to-yellow emission ratio of the purified Src reporter after in vitro phosphorylation by Src: 25%
emission ratio change of the Src reporter in HeLa cells on EGF stimulation: 25 to 35%
emission ratio change of the monomeric (A206K CFP/YFP) Src reporter in response to Src kinase in vitro: 43%
Substance: c-Src SH2 domain of the Src reporter
